Results taken from patent US20260234260A1 (EUCURE BEIJING BIOPHARMA, published 2026).
Read-outs that look alike come from different tables or passages of the source.

B1: Pembrolizumab-Seli-FVHC-IgG4 (bispecific antibody)
heavy: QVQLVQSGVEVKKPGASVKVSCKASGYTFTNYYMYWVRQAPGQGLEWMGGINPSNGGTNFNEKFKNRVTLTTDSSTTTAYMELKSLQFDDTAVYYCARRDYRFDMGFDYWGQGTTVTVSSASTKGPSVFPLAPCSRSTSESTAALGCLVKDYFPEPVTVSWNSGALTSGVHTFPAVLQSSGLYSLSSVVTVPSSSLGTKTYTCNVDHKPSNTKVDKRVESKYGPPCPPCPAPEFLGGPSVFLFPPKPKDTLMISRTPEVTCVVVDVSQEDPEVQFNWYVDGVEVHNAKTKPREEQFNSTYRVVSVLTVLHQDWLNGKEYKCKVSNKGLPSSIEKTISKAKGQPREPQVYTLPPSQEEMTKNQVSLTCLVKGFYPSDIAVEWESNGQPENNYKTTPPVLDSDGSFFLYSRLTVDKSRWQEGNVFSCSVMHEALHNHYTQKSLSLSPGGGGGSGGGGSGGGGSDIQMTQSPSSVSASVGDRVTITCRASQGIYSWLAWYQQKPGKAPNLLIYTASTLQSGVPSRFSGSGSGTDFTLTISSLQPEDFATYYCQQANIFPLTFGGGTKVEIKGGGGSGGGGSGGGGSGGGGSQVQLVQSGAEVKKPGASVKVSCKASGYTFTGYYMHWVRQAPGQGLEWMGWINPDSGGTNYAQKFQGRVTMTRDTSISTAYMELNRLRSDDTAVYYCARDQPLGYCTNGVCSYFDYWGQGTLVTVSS
light: EIVLTQSPATLSLSPGERATLSCRASKGVSTSGYSYLHWYQQKPGQAPRLLIYLASYLESGVPARFSGSGSGTDFTLTISSLEPEDFAVYYCQHSRDLPLTFGGGTKVEIKRTVAAPSVFIFPPSDEQLKSGTASVVCLLNNFYPREAKVQWKVDNALQSGNSQESVTEQDSKDSTYSLSSTLTLSKADYEKHKVYACEVTHQGLSSPVTKSFNRGEC
B2: Pembrolizumab-APX005M-FVHC-IgG4 (bispecific antibody)
heavy: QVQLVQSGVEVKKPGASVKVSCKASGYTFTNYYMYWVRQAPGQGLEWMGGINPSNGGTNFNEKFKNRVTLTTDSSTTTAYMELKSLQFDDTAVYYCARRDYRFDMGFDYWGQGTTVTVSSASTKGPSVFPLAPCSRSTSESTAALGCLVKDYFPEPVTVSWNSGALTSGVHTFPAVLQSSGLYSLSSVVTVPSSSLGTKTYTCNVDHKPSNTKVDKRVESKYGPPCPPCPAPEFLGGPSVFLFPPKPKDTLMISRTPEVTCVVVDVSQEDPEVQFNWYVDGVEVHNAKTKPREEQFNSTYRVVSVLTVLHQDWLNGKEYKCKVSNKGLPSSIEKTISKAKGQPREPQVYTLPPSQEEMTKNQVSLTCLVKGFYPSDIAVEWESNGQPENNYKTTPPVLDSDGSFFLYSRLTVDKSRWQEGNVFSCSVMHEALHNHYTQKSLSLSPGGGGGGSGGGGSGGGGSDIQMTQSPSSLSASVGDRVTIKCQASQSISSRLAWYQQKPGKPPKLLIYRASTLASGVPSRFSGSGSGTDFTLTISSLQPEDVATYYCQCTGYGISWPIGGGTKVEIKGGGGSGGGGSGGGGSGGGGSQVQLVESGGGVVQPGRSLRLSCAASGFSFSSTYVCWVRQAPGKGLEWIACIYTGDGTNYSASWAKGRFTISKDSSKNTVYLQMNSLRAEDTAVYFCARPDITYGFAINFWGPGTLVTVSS
light: B1 light
B3: Pembrolizumab-6A7-HC-IgG1-LALA (bispecific antibody)
heavy: not shown
light: B1 light
B4: anti-PD-1 monoclonal antibody 1A7-H2K3-IgG4 (antibody)
VH: EVQLVESGGGLVQPGGSLRLSCAASGFTFSSYSMSWVRQAPGKRLEWVAHISSGGSSTYYPDTVKGRFTISRDNSKNTLYLQMNSLRAEDTAMYYCTRQFYYGSSFWYFDVWGAGTTVTVSS
light: DNVLTQSPATLSVSPGERATLSCKASQSVDFDGDSYMNWYQQKPGQPPRLLIYAASNLESGIPARFSGSGSGTDFTLTISSVEPEDFATYYCQQSNEDPPTFGGGTKVEIKRTVAAPSVFIFPPSDEQLKSGTASVVCLLNNFYPREAKVQWKVDNALQSGNSQESVTEQDSKDSTYSLSSTLTLSKADYEKHKVYACEVTHQGLSSPVTKSFNRGEC
notes: IgG4; also called PD-1 (1A7-H2K3-IgG4); PD1-1A7-H2K3-IgG4
B5: ScFV-HC-IgG1-LALA (bispecific antibody)
heavy: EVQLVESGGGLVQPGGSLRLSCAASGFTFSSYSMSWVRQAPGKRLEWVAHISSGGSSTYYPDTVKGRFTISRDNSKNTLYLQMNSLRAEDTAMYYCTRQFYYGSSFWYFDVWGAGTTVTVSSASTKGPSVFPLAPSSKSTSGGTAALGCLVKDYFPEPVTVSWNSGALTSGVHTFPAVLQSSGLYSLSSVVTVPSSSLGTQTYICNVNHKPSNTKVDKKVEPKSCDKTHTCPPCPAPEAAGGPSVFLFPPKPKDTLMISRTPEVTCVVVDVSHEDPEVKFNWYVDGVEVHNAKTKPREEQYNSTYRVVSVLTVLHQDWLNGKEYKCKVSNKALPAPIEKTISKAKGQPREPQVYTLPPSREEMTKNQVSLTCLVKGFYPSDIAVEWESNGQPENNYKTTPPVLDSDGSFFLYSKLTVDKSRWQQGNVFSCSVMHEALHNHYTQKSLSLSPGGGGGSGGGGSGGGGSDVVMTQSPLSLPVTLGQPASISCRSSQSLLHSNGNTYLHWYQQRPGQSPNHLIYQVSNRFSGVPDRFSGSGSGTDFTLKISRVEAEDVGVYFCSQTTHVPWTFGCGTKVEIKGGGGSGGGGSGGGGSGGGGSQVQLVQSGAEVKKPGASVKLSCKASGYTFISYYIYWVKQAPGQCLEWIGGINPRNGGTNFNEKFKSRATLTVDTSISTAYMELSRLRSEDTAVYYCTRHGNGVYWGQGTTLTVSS
light: B4 light
B6: PD1-C40-6A7-FV3A (bispecific antibody, human IgG4 S228P, kappa)
heavy: EVQLVESGGGLVQPGGSLRLSCAASGFTFSSYSMSWVRQAPGKRLEWVAHISSGGSSTYYPDTVKGRFTISRDNSKNTLYLQMNSLRAEDTAMYYCTRQFYYGSSFWYFDVWGAGTTVTVSSASTKGPSVFPLAPCSRSTSESTAALGCLVKDYFPEPVTVSWNSGALTSGVHTFPAVLQSSGLYSLSSVVTVPSSSLGTKTYTCNVDHKPSNTKVDKRVESKYGPPCPPCPAPEFLGGPSVFLFPPKPKDTLMISRTPEVTCVVVDVSQEDPEVQFNWYVDGVEVHNAKTKPREEQFNSTYRVVSVLTVLHQDWLNGKEYKCKVSNKGLPSSIEKTISKAKGQPREPQVYTLPPSQEEGGGGSGGGGSDVVMTQSPLSLPVTLGQPASISCRSSQSLLHSNGNTYLHWYQQRPGQSPNHLIYQVSNRFSGVPDRFSGSGSGTDFTLKISRVEAEDVGVYFCSQTTHVPWTFGCGTKVEIKGGGGSGGGGSGGGGSGGGGSQVQLVQSGAEVKKPGASVKLSCKASGYTFISYYIYWVKQAPGQCLEWIGGINPRNGGTNFNEKFKSRATLTVDTSISTAYMELSRLRSEDTAVYYCTRHGNGVYWGQGTTLTVSSGGGGSGGGGSVSLTCLVKGFYPSDIAVEWESNGQPENNYKTTPPVLDSDGSFFLYSRLTVDKSRWQEGNVFSCSVMHEALHNHYTQKSLSLSPGK
light: B4 light
notes: Anti-CD40 scFv (6A7) fused into each heavy chain CH3 domain at positions 358-362 (EU numbering) of the anti-PD-1 antibody 1A7-H2K3-IgG4
B7: 1A7-selicrelumab-FV3A-IgG4 (bispecific antibody)
heavy: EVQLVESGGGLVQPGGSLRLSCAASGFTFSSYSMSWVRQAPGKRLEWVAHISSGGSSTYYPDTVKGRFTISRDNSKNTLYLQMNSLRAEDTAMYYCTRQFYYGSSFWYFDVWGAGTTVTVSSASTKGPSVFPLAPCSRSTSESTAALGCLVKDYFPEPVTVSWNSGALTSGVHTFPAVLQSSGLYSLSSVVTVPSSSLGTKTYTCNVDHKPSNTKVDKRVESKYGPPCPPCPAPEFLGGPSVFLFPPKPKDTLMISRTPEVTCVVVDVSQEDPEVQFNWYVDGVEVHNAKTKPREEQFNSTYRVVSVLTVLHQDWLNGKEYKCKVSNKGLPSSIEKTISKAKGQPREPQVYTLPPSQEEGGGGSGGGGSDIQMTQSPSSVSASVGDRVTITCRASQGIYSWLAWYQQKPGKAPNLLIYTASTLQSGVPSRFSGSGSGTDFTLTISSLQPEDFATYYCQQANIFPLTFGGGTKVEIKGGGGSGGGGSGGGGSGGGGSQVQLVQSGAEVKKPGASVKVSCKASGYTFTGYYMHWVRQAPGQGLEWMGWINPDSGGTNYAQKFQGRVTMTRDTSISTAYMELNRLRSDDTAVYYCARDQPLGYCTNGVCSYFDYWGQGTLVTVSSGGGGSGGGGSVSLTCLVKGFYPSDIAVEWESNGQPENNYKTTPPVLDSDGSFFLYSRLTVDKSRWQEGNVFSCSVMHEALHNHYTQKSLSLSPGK
light: B4 light
B8: Fab-ScFV-IgG4 (bispecific antibody)
heavy: EVQLVESGGGLVQPGGSLRLSCAASGFTFSSYSMSWVRQAPGKRLEWVAHISSGGSSTYYPDTVKGRFTISRDNSKNTLYLQMNSLRAEDTAMYYCTRQFYYGSSFWYFDVWGAGTTVTVSSASTKGPSVFPLAPCSRSTSESTAALGCLVKDYFPEPVTVSWNSGALTSGVHTFPAVLQSSGLYSLSSVVTVPSSSLGTKTYTCNVDHKPSNTKVDKRVESKYGPPCPPCPAPEFLGGPSVFLFPPKPKDTLMISRTPEVTCVVVDVSQEDPEVQFNWYVDGVEVHNAKTKPREEQFNSTYRVVSVLTVLHQDWLNGKEYKCKVSNKGLPSSIEKTISKAKGQPREPQVYTLPPCQEEMTKNQVSLWCLVKGFYPSDIAVEWESNGQPENNYKTTPPVLDSDGSFFLYSRLTVDKSRWQEGNVFSCSVMHEALHNHYTQKSLSLSLGK
light: B4 light
chain: QVQLVQSGAEVKKPGASVKLSCKASGYTFISYYIYWVKQAPGQCLEWIGGINPRNGGTNFNEKFKSRATLTVDTSISTAYMELSRLRSEDTAVYYCTRHGNGVYWGQGTTLTVSSASTGGGGSGGGGSGGGGSGGGGSDVVMTQSPLSLPVTLGQPASISCRSSQSLLHSNGNTYLHWYQQRPGQSPNHLIYQVSNRFSGVPDRFSGSGSGTDFTLKISRVEAEDVGVYFCSQTTHVPWTFGCGTKVEIKDKRVESKYGPPCPPCPAPEFLGGPSVFLFPPKPKDTLMISRTPEVTCVVVDVSQEDPEVQFNWYVDGVEVHNAKTKPREEQFNSTYRVVSVLTVLHQDWLNGKEYKCKVSNKGLPSSIEKTISKAKGQPREPQVCTLPPSQEEMTKNQVSLSCAVKGFYPSDIAVEWESNGQPENNYKTTPPVLDSDGSFFLVSRLTVDKSRWQEGNVFSCSVMHEALHNHYTQKSLSLSLGK
notes: Anti-PD-1 arm (1A7-H2K3 heavy and light chain, IgG4 with KIH) and anti-CD40 arm (6A7-H4K2 scFv joined to IgG4 CH2-CH3 with KIH)
B9: ScFV-HC-IgG4 (bispecific antibody)
heavy: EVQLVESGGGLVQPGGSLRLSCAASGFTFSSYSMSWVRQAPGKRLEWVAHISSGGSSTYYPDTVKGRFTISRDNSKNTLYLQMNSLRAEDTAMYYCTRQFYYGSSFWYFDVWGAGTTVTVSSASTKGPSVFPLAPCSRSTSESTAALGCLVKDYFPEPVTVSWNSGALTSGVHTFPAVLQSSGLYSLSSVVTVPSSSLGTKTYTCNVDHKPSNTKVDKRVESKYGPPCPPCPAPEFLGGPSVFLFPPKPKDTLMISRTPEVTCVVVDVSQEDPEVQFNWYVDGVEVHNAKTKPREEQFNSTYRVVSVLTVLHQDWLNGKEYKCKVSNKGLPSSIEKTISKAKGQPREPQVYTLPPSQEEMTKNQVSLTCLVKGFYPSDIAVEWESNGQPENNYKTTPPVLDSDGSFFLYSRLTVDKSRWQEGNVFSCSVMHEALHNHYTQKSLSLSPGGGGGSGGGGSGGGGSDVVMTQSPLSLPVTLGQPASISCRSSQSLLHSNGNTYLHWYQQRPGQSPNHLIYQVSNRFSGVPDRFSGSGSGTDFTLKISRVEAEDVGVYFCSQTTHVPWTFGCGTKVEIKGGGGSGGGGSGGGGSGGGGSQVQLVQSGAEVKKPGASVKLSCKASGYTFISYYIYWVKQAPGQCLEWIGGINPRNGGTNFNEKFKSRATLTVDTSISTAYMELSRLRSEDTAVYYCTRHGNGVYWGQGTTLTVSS
light: B4 light
notes: Anti-CD40 scFv (6A7-H4K2) joined to the C-terminus of each heavy chain of the anti-PD-1 antibody 1A7-H2K3, IgG4
B10: anti-CD40 monoclonal antibody 6A7-H4K2-IgG2 (antibody, V domains shown)
VH: QVQLVQSGAEVKKPGASVKLSCKASGYTFISYYIYWVKQAPGQGLEWIGGINPRNGGTNFNEKFKSRATLTVDTSISTAYMELSRLRSEDTAVYYCTRHGNGVYWGQGTTLTVSS
VL: DVVMTQSPLSLPVTLGQPASISCRSSQSLLHSNGNTYLHWYQQRPGQSPNHLIYQVSNRFSGVPDRFSGSGSGTDFTLKISRVEAEDVGVYFCSQTTHVPWTFGGGTKVEIK
notes: IgG2; also called CD40 (6A7-H4K2-IgG2); C40 (6A7-H4K2-IgG2)

Tests used:
[1] = biological target: T1, human CD40 expressed on Jurkat-Luc-hCD40 reporter cells (human, UniProt P25942 21-277); assay: cell-based or functional assay
[2] = biological target: T1, human CD40 expressed on …; assay: cell-based or functional assay; remark: listed apart in the source
[3] = biological target: T2, neonatal Fc receptor (FcRn); assay: SPR (Biacore), antibody captured, FcRn as analyte
T2 construct: Analyte in Biacore
Protocol: The binding affinity to neonatal Fc receptor (FcRn) was determined by Biacore® systems.

[4] = biological target: T3, human PD-1/PDCD1 protein, His Tag (ACRO Biosystems Cat #PD1-H5221) (human, UniProt Q15116 25-167); assay: SPR (Biacore), antibody captured, His-tagged hPD-1 in solution
T3 construct: Bought protein; also called hPD-1; human PD-1 protein; not shown: His tag

[5] = biological target: human PD-1 expressed on cells (Jurkat-Luc-hPD-1, CHO-K1-hPD1, Jurkat-hPD1) (human, UniProt Q15116 25-288); assay: cell-based or functional assay
[6] = biological target: T1, human CD40 expressed on …; assay: cell-based or functional assay; remark: listed apart in the source
[7] = biological target: T1, human CD40 expressed on …; assay: cell-based or functional assay; remark: listed apart in the source
[8] = biological target: T4, human CD40/TNFRSF5 Protein, His Tag (ACRO Biosystems Cat #CD0-H5228) (human, UniProt P25942 21-193); assay: SPR (Biacore), hCD40
T4 construct: Bought protein; also called hCD40; human CD40 protein; not shown: His tag
Protocol: The binding affinity to human […] (hCD40) was determined by Biacore systems.

[9] = biological target: T1, human CD40 expressed on …; assay: cell-based or functional assay; remark: listed apart in the source
[10] = biological target: T4, human CD40/TNFRSF5 Protein, His Tag …; assay: SPR (Biacore), antibody captured, His-tagged hCD40 in solution
[11] = biological target: T1, human CD40 expressed on …; assay: cell-based or functional assay; remark: listed apart in the source
[12] = biological target: T1, human CD40 expressed on …; assay: cell-based or functional assay; remark: listed apart in the source
[13] = biological target: T1, human CD40 expressed on …; assay: cell-based or functional assay; remark: listed apart in the source
[14] = biological target: T1, human CD40 expressed on …; assay: cell-based or functional assay; remark: listed apart in the source

human PD-1 expressed on cells (Jurkat-Luc-hPD-1, CHO-K1-hPD1, Jurkat-hPD1), sequence (Q15116 25-288 limits assumed): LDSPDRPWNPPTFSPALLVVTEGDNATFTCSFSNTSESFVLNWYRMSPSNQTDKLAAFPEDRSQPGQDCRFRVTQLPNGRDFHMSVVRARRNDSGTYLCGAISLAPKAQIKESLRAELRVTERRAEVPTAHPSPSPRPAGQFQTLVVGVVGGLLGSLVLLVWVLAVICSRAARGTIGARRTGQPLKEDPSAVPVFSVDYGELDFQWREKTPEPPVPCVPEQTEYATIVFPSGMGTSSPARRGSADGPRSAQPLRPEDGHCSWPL
T4 sequence (P25942 21-193 limits assumed): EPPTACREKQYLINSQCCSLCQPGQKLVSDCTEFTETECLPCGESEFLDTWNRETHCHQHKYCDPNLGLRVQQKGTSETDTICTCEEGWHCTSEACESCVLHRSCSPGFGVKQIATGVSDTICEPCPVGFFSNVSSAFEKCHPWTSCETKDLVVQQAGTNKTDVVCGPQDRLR
T3 sequence (Q15116 25-167 limits assumed): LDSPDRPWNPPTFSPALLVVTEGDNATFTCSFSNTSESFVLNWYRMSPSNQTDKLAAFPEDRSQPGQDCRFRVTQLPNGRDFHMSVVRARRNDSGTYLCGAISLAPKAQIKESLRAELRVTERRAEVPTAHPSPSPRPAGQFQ
T1 sequence (P25942 21-277 limits assumed): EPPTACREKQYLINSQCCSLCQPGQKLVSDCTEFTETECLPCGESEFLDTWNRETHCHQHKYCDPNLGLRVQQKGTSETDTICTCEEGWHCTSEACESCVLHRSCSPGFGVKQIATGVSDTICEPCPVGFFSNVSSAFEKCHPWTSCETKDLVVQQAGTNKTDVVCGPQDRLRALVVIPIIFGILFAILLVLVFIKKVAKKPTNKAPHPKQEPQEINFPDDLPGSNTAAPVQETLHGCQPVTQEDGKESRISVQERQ
T2 sequence (P55899 24-297, chain 1 of 2): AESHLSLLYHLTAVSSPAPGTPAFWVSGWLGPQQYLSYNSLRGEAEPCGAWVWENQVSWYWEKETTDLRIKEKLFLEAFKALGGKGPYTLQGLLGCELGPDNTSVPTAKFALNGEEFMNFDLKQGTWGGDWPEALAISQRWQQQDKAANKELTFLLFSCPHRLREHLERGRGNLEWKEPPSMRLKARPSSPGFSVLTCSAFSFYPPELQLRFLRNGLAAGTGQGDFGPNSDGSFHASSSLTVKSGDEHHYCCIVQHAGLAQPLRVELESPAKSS
T2 sequence (P61769 21-119, chain 2 of 2, further chain): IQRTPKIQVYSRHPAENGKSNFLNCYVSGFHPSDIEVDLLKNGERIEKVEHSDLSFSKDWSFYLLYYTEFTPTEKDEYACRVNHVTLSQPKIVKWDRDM

Row | Binder | Kd [4] [nM] | koff [4] [s⁻¹] | kon [4] [M⁻¹ s⁻¹] | EC50 Value (ug/ml), luminescence of Jurkat-Luc-hPD-1 effector cells co-cultured with CHO-aAPC-hPD-L1 cells [5] [µg/mL] | EC50 Value (ug/ml), luminescence of Jurkat-Luc-hCD40 reporter cells in the presence of Jurkat-hPD1 basal cells [6] [µg/mL] | Kd [10] [nM] | koff [10] [s⁻¹] | kon [10] [M⁻¹ s⁻¹] | other results
1 | B1 | – | – | – | – | – | – | – | – | EC50 (read off the curve) [1]: ~0.1 mg/L
2 | B2 | – | – | – | – | – | – | – | – | EC50 (read off the curve) [2]: ~0.2 mg/L
3 | B3 | – | – | – | – | – | – | – | – | EC50 (read off the curve) [2]: ~0.07 mg/L
4 | B4 | 8.56 | 0.00125 | 146000 | 5.61 | – | – | – | – | Kd [3]: 2210 nM
5 | B5 | – | – | – | – | 0.0065 | – | – | – | –
6 | B6 | – | – | – | – | – | – | – | – | Kd [3]: 1680 nM; EC50 (read off the curve), luciferase Rlu, Jurkat-Luc-hCD40 reporter cells with CHO-K1-hPD-1 basal cells [7]: ~0.03 mg/L; Kd [8]: 0.419 nM; koff [8]: 0.000255 s⁻¹; kon [8]: 608000 M⁻¹ s⁻¹
7 | B7 | – | – | – | – | – | – | – | – | EC50 (read off the curve) [1]: ~0.3 mg/L
8 | B8 | 9.78 | 0.00117 | 120000 | 23.4 | – | 1.75 | 0.0005 | 285000 | EC50 (read off the curve), luciferase Rlu, Jurkat-Luc-hCD40 reporter cells with CHO-K1-hFcγRIIB basal cells [9]: ~0.05 mg/L; EC50 (read off the curve), luciferase Rlu, Jurkat-Luc-hCD40 reporter cells with CHO-K1-hPD-1 basal cells [7]: ~0.04 mg/L; EC50 Value (ug/ml), luminescence of Jurkat-Luc-hCD40 reporter cells in the presence of CHO-K1-hFcγRIIB basal cells [11]: 0.0543 µg/mL; EC50 Value (ug/ml), luminescence of Jurkat-Luc-hCD40 reporter cells in the presence of CHO-K1-hPD1 basal cells [12]: 0.0103 µg/mL
9 | B9 | 8.28 | 0.00122 | 148000 | 4.36 | 0.0079 | 1.3 | 0.00034 | 261000 | EC50 Value (ug/ml), luminescence of Jurkat-Luc-hCD40 reporter cells in the presence of CHO-K1-hPD1 basal cells [12]: 0.0108 µg/mL
10 | B10 | – | – | – | – | 0.0089 | 3.06 | 0.000322 | 105000 | EC50 (read off the curve), luciferase Rlu, Jurkat-Luc-hCD40 reporter cells with CHO-K1-hFcγRIIB basal cells [9]: ~0.02 mg/L; EC50 (read off the curve), luciferase Rlu, Jurkat-Luc-hCD40 reporter cells with CHO-K1-hFcγRIIB basal cells [13]: ~0.01 mg/L; EC50 Value (ug/ml), luminescence of Jurkat-Luc-hCD40 reporter cells in the presence of CHO-K1-hFcγRIIB basal cells [11]: 0.0203 µg/mL; EC50 (read off the curve), luciferase Rlu, Jurkat-Luc-hCD40 reporter cells, no basal cells [14]: ~0.3 mg/L; Kd [8]: 3.06 nM; koff [8]: 0.000322 s⁻¹; kon [8]: 105000 M⁻¹ s⁻¹
